Assay results from the supplement of paper PMC10724198.
± gives the standard deviation of the averaged measurements.

Columns and labels:
Saccharomyces cerevisiae [1] = experiment: protein stability index of tFT-peptide fusion (C-terminal peptide) (PSI (0-1 scale)); higher = more stable (slower turnover); settings: genetic background: wild type; temperature: 30 C
Saccharomyces cerevisiae [2] = experiment: as above
Description: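 MPS profiling in S. cerevisiae of the tFT-X12 degron library: putative degron peptides plus stable controls, 12 aa, fused to the C-terminus of a sfGFP-mCherry timer. Cells are FACS-sorted into 8 mCherry/sfGFP bins and deep-sequenced. PSI runs from 0 (unstable) to 1 (stable). Backgrounds are wild type, das1Δ and doa10Δ at 30 °C, and wild type, das1Δ, cdc34-1 and cdc53-1 at 37 °C; 2-3 technical replicates each.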

[3] = genetic background: cdc34-1, temperature: 37 C
[4] = genetic background: cdc53-1, temperature: 37 C
[5] = genetic background: das1 deletion, temperature: 30 C
[6] = genetic background: das1 deletion, temperature: 37 C
[7] = genetic background: doa10 deletion, temperature: 30 C
[8] = genetic background: wild type, temperature: 30 C
[9] = genetic background: wild type, temperature: 37 C
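Note: PSI is a weighted mean of sequencing reads over stability bins, variants kept only with over 10 reads, mCherry proximal and sfGFP distal, peptide attached via GGGS linker.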

Sequence | protein stability index (Saccharomyces cerevisiae [1]) | protein stability index (Saccharomyces cerevisiae [2]; [3]) | protein stability index (Saccharomyces cerevisiae [2]; [4]) | protein stability index (Saccharomyces cerevisiae [2]; [5]) | protein stability index (Saccharomyces cerevisiae [2]; [6]) | protein stability index (Saccharomyces cerevisiae [2]; [7]) | protein stability index (Saccharomyces cerevisiae [2]; [8]) | protein stability index (Saccharomyces cerevisiae [2]; [9])
VLLRSRLLRRLS | 0.211 ± 0.024 | 0.588 ± 0.055 | 0.6547 ± 0.0063 | 0.67 ± 0.048 | 0.72 ± 0.033 | 0.137 ± 0.013 | 0.137 ± 0.038 | 0.235 ± 0.02
VLRCIWLCFLSV | 0.465 ± 0.043 | 0.487 ± 0.025 | 0.5129 ± 0.0034 | 0.439 ± 0.034 | 0.607 ± 0.032 | 0.448 ± 0.039 | 0.4 ± 0.013 | 0.561 ± 0.036
VLRLVLFVLISV | 0.337 ± 0.0069 | 0.311 ± 0.065 | 0.348 ± 0.019 | 0.277 ± 0.03 | 0.387 ± 0.016 | 0.2853 ± 0.0015 | 0.268 ± 0.015 | 0.352 ± 0.016
VLSCVWFVVVGV | 0.3596 ± 0.00083 | 0.247 ± 0.013 | 0.316 ± 0.034 | 0.245 ± 0.028 | 0.441 ± 0.019 | 0.202 ± 0.0034 | 0.22 ± 0.033 | 0.4017 ± 0.0016
VLYWTGTLFVSL | 0.307 ± 0.035 | 0.208 ± 0.00082 | 0.355 ± 0.0038 | 0.218 ± 0.017 | 0.426 ± 0.0064 | 0.195 ± 0.019 | 0.233 ± 0.028 | 0.424 ± 0.038
VPIIVVVYVFVT | 0.203 ± 0.085 | 0.13 ± 0.022 | 0.247 ± 0.11 | 0.157 ± 0.03 | 0.306 ± 0.024 | 0.105 ± 0.025 | 0.134 ± 0.038 | 0.258 ± 0.0081
VRFLLSLCCALL | 0.4914 ± 0.0025 | 0.588 ± 0.03 | 0.671 ± 0.018 | 0.548 ± 0.033 | 0.624 ± 0.042 | 0.5436 ± 0.0034 | 0.518 ± 0.021 | 0.596 ± 0.032
VRLYLRSCVVES | 0.32 ± 0.021 | 0.347 ± 0.061 | 0.368 ± 0.0011 | 0.228 ± 0.029 | 0.437 ± 0.0094 | 0.181 ± 0.0071 | 0.217 ± 0.026 | 0.4148 ± 0.0031
VRMVIFSSVYLT | 0.309 ± 0.0098 | 0.462 ± 0.002 | 0.509 ± 0.03 | 0.362 ± 0.033 | 0.533 ± 0.0036 | 0.256 ± 0.008 | 0.26 ± 0.027 | 0.448 ± 0.02
VRWLVFFLFLFG | 0.466 ± 0.074 | 0.501 ± 0.011 | 0.481 ± 0.013 | 0.406 ± 0.023 | 0.555 ± 0.0072 | 0.322 ± 0.0038 | 0.327 ± 0.022 | 0.497 ± 0.016
VSCLDLCFVISR | 0.437 ± 0.013 | 0.647 ± 0.041 | 0.681 ± 0.022 | 0.503 ± 0.034 | 0.66874 ± 0.00016 | 0.528 ± 0.029 | 0.514 ± 0.025 | 0.626 ± 0.018
VSCYYVFLIPFW | 0.484 ± 0.02 | 0.463 ± 0.011 | 0.6 ± 0.036 | 0.414 ± 0.038 | 0.57839 ± 0.00033 | 0.408 ± 0.018 | 0.409 ± 0.017 | 0.56 ± 0.0097
VSFLLYNFLSVF | 0.101 ± 0.0017 | 0.286 ± 0.0083 | 0.418 ± 0.0077 | 0.346 ± 0.028 | 0.4643 ± 0.0021 | 0.053 ± 0.019 | 0.0707 ± 0.012 | 0.0652 ± 0.015
VSFLVSIFVSGV | 0.303 ± 0.039 | 0.189 ± 0.025 | 0.246 ± 0.036 | 0.216 ± 0.029 | 0.372 ± 0.0078 | 0.2 ± 0.025 | 0.194 ± 0.048 | 0.332 ± 0.015
VSLLSLGYVFVY | 0.307 ± 0.019 | 0.286 ± 0.05 | 0.27 ± 0.03 | 0.212 ± 0.038 | 0.3467 ± 0.00073 | 0.184 ± 0.0098 | 0.216 ± 0.033 | 0.319 ± 0.0037
VSLLVFVVSSRV | 0.3816 ± 0.0022 | 0.345 ± 0.034 | 0.418 ± 0.0047 | 0.262 ± 0.031 | 0.476 ± 0.016 | 0.223 ± 0.0068 | 0.255 ± 0.022 | 0.444 ± 0.013
VSPPPLSPPLSR | 0.701 ± 0.0022 | 0.677 ± 0.014 | 0.7238 ± 0.0031 | 0.6712 ± 0.0055 | 0.709 ± 0.012 | 0.686 ± 0.0078 | 0.673 ± 0.0092 | 0.688 ± 0.014
VTMTPSLCFSYS | 0.464 ± 0.018 | 0.688 ± 0.017 | 0.684 ± 0.023 | 0.388 ± 0.029 | 0.668 ± 0.013 | 0.364 ± 0.0098 | 0.396 ± 0.01 | 0.632 ± 0.016
VTRLLLSRIDCY | 0.445 ± 0.11 | 0.437 ± 0.018 | 0.445 ± 0.0057 | 0.376 ± 0.028 | 0.501 ± 0.016 | 0.346 ± 0.011 | 0.367 ± 0.025 | 0.468 ± 0.022

Sequence | protein stability index (Saccharomyces cerevisiae [1]) | protein stability index (Saccharomyces cerevisiae [2]; [3]) | protein stability index (Saccharomyces cerevisiae [2]; [4]) | protein stability index (Saccharomyces cerevisiae [2]; [5]) | protein stability index (Saccharomyces cerevisiae [2]; [6]) | protein stability index (Saccharomyces cerevisiae [2]; [7]) | protein stability index (Saccharomyces cerevisiae [2]; [8]) | protein stability index (Saccharomyces cerevisiae [2]; [9])
VVFLFVEAVVGV | 0.0707 ± 0.0075 | 0.0536 ± 0.018 | 0.0519 ± 0.021 | 0.0387 ± 0.014 | 0.0974 ± 0.015 | 0.0288 ± 0.0048 | 0.0238 ± 0.0054 | 0.0933 ± 0.022
VVFVVGAPPVLC | 0.4834 ± 0.0027 | 0.476 ± 0.018 | 0.481 ± 0.036 | 0.359 ± 0.024 | 0.532 ± 0.013 | 0.323 ± 0.016 | 0.365 ± 0.0082 | 0.5068 ± 0.0019
VVGVVVCWGCGW | 0.45 ± 0.023 | 0.493 ± 0.02 | 0.555 ± 0.057 | 0.393 ± 0.024 | 0.587 ± 0.0062 | 0.369 ± 0.021 | 0.397 ± 0.018 | 0.535 ± 0.0068
VVPWLGYVSCFS | 0.465 ± 0.041 | 0.452 ± 0.031 | 0.487 ± 0.027 | 0.357 ± 0.029 | 0.521 ± 0.0067 | 0.324 ± 0.0094 | 0.366 ± 0.032 | 0.5026 ± 0.0044
VVRAVLCVCASV | 0.45987 ± 0.00039 | 0.4577 ± 0.0025 | 0.489 ± 0.0069 | 0.409 ± 0.028 | 0.518 ± 0.0019 | 0.387 ± 0.012 | 0.413 ± 0.021 | 0.489 ± 0.018
VVRYGGVIAFRG | 0.596 ± 0.24 | 0.841 ± 0.065 | 0.641 ± 0.085 | 0.547 ± 0.017 | 0.725 ± 0.029 | 0.579 ± 0.072 | 0.691 ± 0.13 | 0.684 ± 0.13
VVWCLLARVLLV | 0.218 ± 0.026 | 0.332 ± 0.017 | 0.4 ± 0.02 | 0.306 ± 0.036 | 0.46657 ± 0.00033 | 0.1578 ± 0.00094 | 0.167 ± 0.019 | 0.243 ± 0.011
VWICPTLFLLFS | 0.455 ± 0.014 | 0.486 ± 0.03 | 0.509 ± 0.0088 | 0.369 ± 0.05 | 0.544 ± 0.013 | 0.45736 ± 0.00021 | 0.374 ± 0.018 | 0.529 ± 0.0063
VYDVSVGVAVVG | 0.4567 ± 0.002 | 0.44 ± 0.018 | 0.464 ± 0.041 | 0.34 ± 0.037 | 0.5196 ± 0.0031 | 0.291 ± 0.017 | 0.346 ± 0.025 | 0.48822 ± 0.00017
VYKSTHKIYILT | 0.45 ± 0.022 | 0.609 ± 0.011 | 0.729 ± 0.023 | 0.53 ± 0.011 | 0.6774 ± 0.0066 | 0.318 ± 0.0091 | 0.364 ± 0.028 | 0.5493 ± 0.0012
VYQAFIFRMSLF | 0.243 ± 0.068 | 0.529 ± 0.026 | 0.672 ± 0.0078 | 0.586 ± 0.019 | 0.695 ± 0.016 | 0.147 ± 0.0025 | 0.159 ± 0.02 | 0.248 ± 0.0046
VYRVTGSWLMWV | 0.434 ± 0.007 | 0.511 ± 0.059 | 0.5758 ± 0.0051 | 0.483 ± 0.021 | 0.527 ± 0.0078 | 0.353 ± 0.03 | 0.357 ± 0.019 | 0.4879 ± 0.0027
VYTVGFVCWLVY | 0.316 ± 0.026 | 0.203 ± 0.0067 | 0.27 ± 0.013 | 0.208 ± 0.021 | 0.3458 ± 0.0024 | 0.185 ± 0.014 | 0.176 ± 0.025 | 0.323 ± 0.016
VYWRGLHLQRLL | 0.418 ± 0.05 | 0.681 ± 0.036 | 0.7679 ± 0.0013 | 0.652 ± 0.033 | 0.775 ± 0.024 | 0.26 ± 0.0053 | 0.29 ± 0.028 | 0.4753 ± 0.0016
WALWGFVFWDWW | 0.497 ± 0.03 | 0.402 ± 0.049 | 0.476 ± 0.016 | 0.377 ± 0.035 | 0.5133 ± 0.0029 | 0.3786 ± 0.0011 | 0.365 ± 0.023 | 0.501 ± 0.0078
WCGLFCRSVFVV | 0.158 ± 0.072 | 0.28221 ± 0.00025 | 0.363 ± 0.0043 | 0.263 ± 0.033 | 0.406 ± 0.0015 | 0.0996 ± 0.0021 | 0.11 ± 0.023 | 0.108 ± 0.0023
WDEVVAIVVCPV | 0.39 ± 0.023 | 0.436 ± 0.016 | 0.421 ± 0.0076 | 0.293 ± 0.036 | 0.493 ± 0.012 | 0.242 ± 0.0082 | 0.3 ± 0.016 | 0.457 ± 0.015
WFALFYFLVSAF | 0.266 ± 0.011 | 0.189 ± 0.019 | 0.257 ± 0.01 | 0.205 ± 0.036 | 0.316 ± 0.0074 | 0.157 ± 0.008 | 0.187 ± 0.0045 | 0.254 ± 0.0038
